How the values were obtained:
[1] = biological target: PCV2 Rep WT (catalytically inactive) (Porcine circovirus 2 (PCV2)) (UniProt Q8BB16); assay: fluorescence polarization; settings: 50 mM NaCl, 50 mM HEPES pH 8.0, 0.05% Tween-20, 1 mM DTT, 5 uM MnCl2 (SI legend: 50 uM Mn2+) or EDTA; 10 nM FAM substrate, protein from 1 uM in 1:2 dilutions …
[2] = biological target: PCV2 Rep WT (catalytically inactive) (Porcine circovirus 2 (PCV2)) (UniProt Q8BB16); assay: fluorescence polarization; settings: 50 mM NaCl, 50 mM HEPES pH 8.0, 0.05% Tween-20, 1 mM DTT, 5 uM MnCl2 (SI legend: 50 uM Mn2+) or EDTA; 10 nM FAM substrate, protein from 1 uM in 1:2 dilutions …; remark: listed apart in the source

Chain of UniProt Q8BB16 (Q8BB16 whole entry): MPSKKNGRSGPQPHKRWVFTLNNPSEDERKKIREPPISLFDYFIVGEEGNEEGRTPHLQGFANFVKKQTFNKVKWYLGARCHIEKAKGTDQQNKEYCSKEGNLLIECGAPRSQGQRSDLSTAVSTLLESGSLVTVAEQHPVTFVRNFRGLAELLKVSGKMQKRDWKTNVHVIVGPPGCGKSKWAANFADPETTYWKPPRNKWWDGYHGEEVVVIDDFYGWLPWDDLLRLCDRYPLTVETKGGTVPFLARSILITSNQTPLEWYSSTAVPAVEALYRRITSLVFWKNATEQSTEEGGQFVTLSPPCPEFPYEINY

Sequence | Kd [1] [µM] | Kd [2] [µM]
CGTAAATATTACCGTC [HUHDNA_FAM] | 0.03 | 0.006
CGUAAAAUAUUACCGUC [HUHRNA_FAM] | 0.1 | 0.09

Source: article PMC13231165
